This passage reports protein production results from a protein production outcome set (Wang et al. 2014).

The nature of this data set: label from the status in PepcDB records.
For “MSDMFLPARMRKLKIITLDQYSDSVVRSLHEEGVTQIDDISERIQQDAEWRQILKPSRATPYTGRVSSLLMKTSGILDFLGSVAAEEKGLRDTIREFINPPIFEKREVEELDTESLIERAEETLGRVESETRVMEEKLNELDSERSAVESSLSVAEKLKDFDIDFSDLQDSEYITGIAGRITAENLPELRDKLADITDELVISDREGENKAERILIIVTLKKHADSIASVLRRMEFERFEISELQGRPSEIISSSKTRLEEISRERKEIISKLRDINAEWEDELLVLREQLEIEKERNEVFSLFGETRKTVMLEAWVPLKEADRVIAVVEESSEGTALTDLEDPDPEEVPVLLDNPRFAKPYETFVEMYSPLKYNEIDPTIFMAFVFPFFFGFCLTDAGYGIIDALIGFILYRGLGKVNNFMRNFGIIMMSCGVWAFILGMVTNGFIGDFFPRFFNITLPTVIPAIDAFVNPQNILIMALTVGVLHINFGLILGARNNIRLGNMREALGSQIVWLILELGIILYLVGGMIFGAPLIILAFAMLLYYNGLFGLMDVSGFLGTLLSYARLLALCLSTGGIAMTVNILTGLSYEMIPVIGVVLAPIIFVFGHIANNAFQSLGAFINSLRLHYVEFFAQFYMGGKNKFNAFRAERNFTKIRR”, the protein production entry is reported as “failed”.

“MTELFIFDREDQLLTTLTESTGLVRALFREELNRVPNQPFAFTIEASSEEAKHVIEEHQVVFRDKEGDLRLFVIKELEDVDGLDGPQTTAICEPAFMELAEHMIVEQSVVNQPAHEALNVALQGTRWTGSVEVNLGNATEHFSYVSAIEAVWNILVTWGGDFKDVVTFNAENRITSHQIKIVQRRGVDRGKRFEIDHNIEQIERTILSYPVTALYGRGASLQGENGEDGSLDFGEVEWRKSAGAPVDKPKGQLWVGDPEALQKYGRKHNGQLLHREGIFQNTNIEDPEELLEKTWEQLQKSSKPEVHYRLSVRLFEHISGYEHEQASLGDTAIAIDRQFSRPIEIQSRIIAIEYDLVDIDGTGMVEMGQFLSLNGMDERLERIIEEIEKNQGKWGSSGTITRDKYPDIKPSAPVNLRAESGFQAIQLYWDYADELYIEHYEVYGSQVSDFVPDSQHLLWRGKVSAFAHFVDKDQQWYYYVRAVNFHGRPSDWSDKVSGSTQRIISDDILFGPDLAERLRELNRISDIIGEGGVNFEQISDHAKALLNQEARQYTDEEIRAVEDAINAELAEKAGLTYVEGKFSLIDSELEAVDGKFVSVSTQLAEIETEISLKAEQTQVDVIEGEITNVAQDLSQLTVSVNGVQSEVTSIRSGIGHLVEIVNGKATEYKLHFSFNASRDYLVLLTRADLTGARNYVAGTFFGRRVSGNVGSGKIEVIFNNSSNGDRASGYFEASEIQTLNGWSMVTCDYKGEKYIALRHQLPNEHDIWNTDTRFYGQIGSDSEMLLPVDNWGGNPDITNIQPFESSRPVATPIMRAETRIDQNSQQIALRATEINSLAGRMTQAEAELSVQATEIAARVEKDGIVTALNLSPEGIRIKGSLIHLDGTTLINDGVIQNAHIANAAITRAKLDTAVIGTAQIEDLAVTSAKIASVNADKINAASLSAISANLGTVTAGVMRSNNNNMELNLNTGTLNMRNTNFTLGSGADIEFTDPGNRLYFKQYDPVGNITRSAGFGIGRSINDRFPYGFLGTTNTTKPNPIDDQNFTGFITNTNQRMITDGIGNSVVGRIFHIRDQAVSFRKGVAFNFSDSTTMNIFPINTGSYDYVFGSNNNKWKDIHADNIRAAQVYIRNPVGTGGYLFETQPESGSATMVFRGINVSFSDWNYNLGTSSAPWNFGRINHLRPSGSSHSVGSFSERYNFVYTNTLVEGSDIKIKSDIKNSFLGLAFIKDLRPVDFQLVENEQYKTGLIAQEVAAELEHHGIDLEKQTIVTINDSVMGVSYTQLIAPTIKAIQELDSYVRDEVNSLKLENQRLKEKITKLEEKIA”: the protein production entry is listed as “failed”. Next, “MVPHHWASLWNRQLALQTSVRRRLRKEIDLIRFLKATAAADELTGIVGIAAQVIEALGEWGVGLLTLLETVFPPIPSEVILPLAGFLTQQGSMNLILVFVTSTLGAYAGAMLLYWLGYKVGLERSIKLLSKLPLVDREDFEKAAEWFERHGKSAIFFGRLLPGVRSLISLPAGAERMNLATFSVFTVAGTGLWNALLIGAGALLGKQYHLVDQYSRFLNYAVYAGLAALLVWLIIRRVKKRKESTR”: “failed”; “MKGITSLGSKWFVEFEKNNVHNVYDRIAEHFTKTRYRIWPGVELFLKQTSPLDTVLDVGCGNGKNLISYRNLFCIGIDRCVPLVKTCKQRQLETAVADILELPFQSEKFDIVLCIAVLHHLCTRERRILAIQELGRVLRPGGSCLLYVWAANENDGKDEVKNTKAREKMRFLDENKQEALIPWVVIDHEKKATQLEKNLKQPSTFTLERYYHLYRQGELEEECLQSNCFHIQHSYYEQSNWCVVLDKKS”: “not failed”; “GHMPTKQQLLYEGKAKKIYATDEPDVLWVEYKDSATAFNGEKKATIAGKGRLNNEISSLLFLKLREAGIANHFIEKLSPTEQLVRRVTIIPLEVVVRNVVAGSLAKRIGLEEGTPLEAPLVEFYYKNDDLGDPLLLEDHIFILKLASREEVAALKQAALAVNDVLRLHFAERNVRLIDFKLEFGRTADGAILLADEISPDTCRLWDAKTNEKLDKDVFRRDLGSLTDAYEVILQRLGGESACTK”: “not failed”. For the sequence “MNKRFFPRIDLPLLMAIIPIMLLSSLTLWSASGFDESMLFKHLARCALTLVCILVMSSIPAASYQRSAPYLYFVAVSLLLAVALFGDSTNGSQRWLDIGFFRFQPSELIKLSIPIMIAWMLHLEGGRPDFRKIALCLMITLVPAGLIALQPDLDGAIFTVIYALFVLFFAGMSWKIIGGFVVSVLTLAPILWFFVMEAYQKSRVTQFLHPESDPLGSGYQIIQSLIAIGSGGMKGKGWMNATQGTLGFIPESHTDFIFSTYAEEWGFIGCVVLLALYLFITARVMLLACQSEHFFSRLVSGTLAMSFFLYAFINTGMVSGLLPVMGSPLPFFSYGGTAMLTQGICFGVIMSLCYSKYRNT”, the protein production entry was “failed”.

“MQGHHFGGDMSNSEAIDNTTAKLRLAQSSSLLALALLIGSAPAQAADTDWGWLAIGAPAATAQGWTGKGVVIGVVDTGIDFSHPALSGRAFDYNYGSFVAGSNHPHATHVAGIIGATDINRGMEGVAPDVRFSSMKIFTGAGGSYLGDAAVADAYDGAIGSGVRIFNNSWGSSDSIANFTSREELLAHEPLLVGAFTRAVNADAVLVWSTGNDGRSQPSWQAAAPYYIQELKANWIAVTSVGENGTIASYANACGVAKAWCLAAPGGDFNPGIYSTIPGKDYGYMSGTSMAAPYVTGATAIARQMFPKASGAQLAQIVLQTSRDIGAPGIDDVYGWGLLAVDNIVDTINPRGAALFASAAWGRFTTLSAIGNTVLDRISDLRNGRGDVVTAPLAFAGQNGAFSQSGSNPRNAYAADLAAAPQPSPLGFGSVWARGLAGRATLSGSASSPQTTADISGGLLGFDLVNNQNLLVGIAGGGSNTNLTASGISDKAGAQAWHVLGYAAAMYGPAFVNVAGGWNSFDQSYQRRVIPGTAGTVFASTISAAQSSSTDVAYFFQGRGGWTFQTEVGRIEPYVHGATRNQSFGGFSETNASIFSLSVPSASLSEAEYGAGVRWACAPIKTVDQRVAVAPTIDLAYVRFTNDGPIQVETNLLGTSVVGQTAALGADAIRVAAGLSLTSLAGISGSFGYTGTVRDAATAHTVSGGLSIKF”: the protein production result was “failed”. In the case of “MKALSPVRGCYEAVCCLSERSLAIARGRGKGPAAEEPLSLLDDMNHCYSRLRELVPGVPRGTQLSQVEILQRVIDYILDLQVVLAEPAPGPPDGPHLPIQTAELAPELVISNDKRSFCH”, the protein production result is reported as “failed”. Under “MSDSWARSPSLSGYARQEGKFRVAIGAPRGDIPGQGDSSMSTQTAVLKKDITPQGSDYEIVRRAIEKISLDYRDQPSLEELAEEVGETPTGLQKLFTRWAGLSPKAFLQAVTLDHARRLLDSGMPLLETSFELGMSGPGRLHDLFVTHEAMSPGDYKTRGAGLTIRYGYHASPFGTALIMATDRGLAGLAFSDPGEERAAFADMSSRWPNAIYVEDLAATGPYAARIFDPTLWRPDQPLHVVMIGTDFQVRVWEALLQIPMGKARTYSSIAASIGAPSASRAVGAANGANPLSFVVPCHRAIGKSGDLTGYHWGLTRKRAILGWEAGQVSS” stands “failed”; under “MDYGMYFFEHVTPYETLVRRMERVIASGKTPFQDYFLFESKGFGKVLILDKDVQSTERDEYIYHETLVHPAMLTHPEPKRVLIVGGGEGATLREVLKHPTVEKAVMVDIDGELVEVAKRHMPEWHQGAFDDPRAVLVIDDARAYLERTEERYDVVIIDLTDPVGEDNPARLLYTVEFYRLVKAHLNPGGVMGMQAGMILLTHHRVHPVVHRTVREAFRYVRSYKNHIPGFFLNFGFLLASDAFDPAAFSEGVIEARIRERNLALRHLTAPYLEAMFVLPKDLLEALEKETMVSTDQNPFYVTPEGEARQAPYKG”, “not failed”; under “MSYLDNVRVFVRVVELGTLSAAGRDQRVTPAVASNRIKELERHMGVRLFNRTTRKLTPTEHGRVFYEGAVKILEAVNEAESAIADLSRNPKGALKITAPLGIGRRLIAPGIPEFHDRYPDIEVRLRLSDHNVDILAEGVDIAFKLGILEDSNLRMRGIMNCDRVLCGSPRYFERRGIPSSPDDLLSHSHDCLLLRYPGSKEYYWTLQTPDGVRKFEVGGPYDSDDGDVLTQWALDGRGIVNKPLFEVKQHIDEGLLVPVLEETPPLGAQLAAIYPHKRFQDPKVRLMIDFMAERCQRLIGKMLAESAEVQERSSA”, “failed”. Turning to “MVMFRGHLLCFGLGYSALRLARGLLRDGWRVSGTCRSEEKRQALSAQGITAFVFDETTPLPAEAWTGVTHVLVSIPPGPDGDPVLALHRADLLALRPEWLGYFSTTGVYGDTGGAWVDEGKPVRPTQERSKRRVAAEEDWLDLWRDEDLPVHLLRLAGIYGPGRSVFDQLRAGTAKRIIRPGHAFSRIHVDDIGLITRASMADPDPGAIYNLVDDEPAEPSEVMDHACALLGIDPPPAQSFDEVAPGLSPMALSFWADNRKVSNERLWDDLRLRLLYPTFRQGLEAILAEETGRVAEGPPVYKEASDC”, the protein production result is listed as “failed”. Next, “MDGYNIFIVLLAVYIAGLVAIGWYFNKKQKSVTDFWLAGRRIGPSALGFSAAASWLTAGGILAVIGYYMLQGMGSIWAFVAPNILALLIIALLVGKIKNLPAITQPELLEQRYGSAVRWPIALIITVVMILFAVADVTGFSLVLQVFYGVDPLYAAAIVAIAVSLYVTMGGLSAVVWTDVVQFAFLSIFTIAMAFAAVGTVADGGLNTPAISSSELFGNVSYDWWNPLSIGIPMVLIFVFAIIPGWITEQDPWQKVWAAKDAKSARLGMVFGSLMITVVFAACAVIAIAFNNIYPDIAGMGFPAGMAQAEPALLAFVSERFVSAPLIVALSAIGLAAASMSCADTFATSGASCISRDIFQRYIKPDATMKEMLVVNRISVLIIVLAATAGSFVIPNIIDAIHIATFIASASYFFPLMGGLYWKRATKEGAFAGMVVGFVVQVTLVSLDLIKTPPMAANYLESVHPALMSHGVIVGMGLSAIAFFGVSLMTKPSSRINLAPFFEEEAEELAHYEAREIDEKDPTYGAFLKNVDEKVAGERAHLQLNLRASGALSWHELVEKLKSSSPAWVTPTGLDSVYRLTHGDMLACVTVTRGSEERDIWLKAEPRLETVGRQKKELFTAYEELKKVLGQKGVNLDFY”: “failed”.
